The record followed here is PMC5001591.

Conditions in all cases: EMSA: 4 nM 32P-RNA, 1X RNA Structure Buffer, 1 ug yeast RNA in 10 ul, 37 C 15 min (plus 1 h room temperature with mRNA); native 6% PAGE, 0.5X TBE, 4 C; pH and …
On the technique in general: A gel shift assay detects complexes by their altered migration in electrophoresis.

Data set [1] has as its system Hfq. Description: EMSA.
The target of data set [2] is Hfq (UniProt P0A6X3). Description: EMSA.
Data set [3] addresses Hfq (UniProt P0A6X3). Description: footprinting (RNase T1).

Hfq (UniProt P0A6X3), sequence (P0A6X3 2-102): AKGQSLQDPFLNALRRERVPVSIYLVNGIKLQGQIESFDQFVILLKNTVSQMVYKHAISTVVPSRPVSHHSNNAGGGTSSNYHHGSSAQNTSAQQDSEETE

As to SdsN178, the equilibrium dissociation constant (Kd) (usually the free concentration of one partner at which half of the binding sites on the other are occupied at equilibrium, for simple one-to-one binding) with Hfq [1] stood at 28 nM.

Consider “GGGAUUCAGGCAAUGAAUUACUUUUGCAAGCCAUCGCAUUCUCUUAUGUUAUUAAUGAGUUAUGCUGAUUUGUUAAGCAGUUUUAUCAGGCUUGAAAUGGCGUCCAGCCCCGACAGGUGAAUCGUCGGGGCUGAUUUUUUC [SdsN137]”, for which the Kd in the data set with Hfq [2] was found to be 80 nM. The binding result with Hfq [3] was “binds”.

For “GGGUUCAAACUAUCACAUAAAUAAGAUUUAUAUAUAAUUUAUAUUAUUCAGGCAAUGAAUUACUUUUGCAAGCCAUCGCAUUCUCUUAUGUUAUUAAUGAGUUAUGCUGAUUUGUUAAGCAGUUUUAUCAGGCUUGAAAUGGCGUCCAGCCCCGACAGGUGAAUCGUCGGGGCUGAUUUUUUC [SdsN178]”, the dissociation constant Kd with Hfq [2] worked out at 28 nM. The binding result with Hfq [3] is “binds”.

With SdsN137, in the data set with Hfq [1], the equilibrium dissociation constant (Kd) amounted to 80 nM.
